Biological target: Rhodobacter sphaeroides TSPO A139T mutant (Rhodobacter sphaeroides) (UniProt Q9RFC8)
Assay: native MS

Substance: Rhodobacter sphaeroides TSPO A139T mutant (from UniProt Q9RFC8 1-157) (natural protein)
- stoichiometry N: 2
